Target: T1, Flag-NOD2 (human, UniProt Q9HC29 1-1040)
T1 construct: NOD2, human; The deletion constructs count up to aa 1040, the length of whole NOD2; also called NOD2 WT; Flag-NOD2 WT; source: HEK293T, transfected, in lysate; not shown: Flag, N-terminal, kept
Details: partners not purified

B1: myc-TRIM27 WT (natural protein, human, UniProt P14373 1-513, looked up)
chain: MASGSVAECLQQETTCPVCLQYFAEPMMLDCGHNICCACLARCWGTAETNVSCPQCRETFPQRHMRPNRHLANVTQLVKQLRTERPSGPGGEMGVCEKHREPLKLYCEEDQMPICVVCDRSREHRGHSVLPLEEAVEGFKEQIQNQLDHLKRVKDLKKRRRAQGEQARAELLSLTQMEREKIVWEFEQLYHSLKEHEYRLLARLEELDLAIYNSINGAITQFSCNISHLSSLIAQLEEKQQQPTRELLQDIGDTLSRAERIRIPEPWITPPDLQEKIHIFAQKCLFLTESLKQFTEKMQSDMEKIQELREAQLYSVDVTLDPDTAYPSLILSDNLRQVRYSYLQQDLPDNPERFNLFPCVLGSPCFIAGRHYWEVEVGDKAKWTIGVCEDSVCRKGGVTSAPQNGFWAVSLWYGKEYWALTSPMTALPLRTPLQRVGIFLDYDAGEVSFYNVTERCHTFTFSHATFCGPVRPYFSLSYSGGKSAAPLIICPMSGIDGFSGHVGNHGHSMETSP
notes: TRIM27, human, full length (aa 1-513 by the deletion constructs); cDNA from ImaGenes; also called RFP; source: HEK293T, transfected, in lysate; not shown: 3xmyc, N-terminal, kept
- fold change of TRIM27 co-precipitated with NOD2 at 3 h after 10 µM MDP against untreated controls: > 2 fold

From publication PMC3400628 (PLoS ONE, 2012)
